In paper PMC11035800:

What was measured:
CARM1 = CARM1 (UniProt Q86X55); assay: anti-HA co-IP, anti-MYC blot; conditions: reference: MYC-CARM1 wild type; sites Y149
RUNX1 = RUNX1 (UniProt Q01196); assay: anti-MYC IP, anti-RUNX1 blot; conditions: reference: MYC-CARM1 wild type

UniProt Q86X55, sequence (Q86X55 whole entry Y149F): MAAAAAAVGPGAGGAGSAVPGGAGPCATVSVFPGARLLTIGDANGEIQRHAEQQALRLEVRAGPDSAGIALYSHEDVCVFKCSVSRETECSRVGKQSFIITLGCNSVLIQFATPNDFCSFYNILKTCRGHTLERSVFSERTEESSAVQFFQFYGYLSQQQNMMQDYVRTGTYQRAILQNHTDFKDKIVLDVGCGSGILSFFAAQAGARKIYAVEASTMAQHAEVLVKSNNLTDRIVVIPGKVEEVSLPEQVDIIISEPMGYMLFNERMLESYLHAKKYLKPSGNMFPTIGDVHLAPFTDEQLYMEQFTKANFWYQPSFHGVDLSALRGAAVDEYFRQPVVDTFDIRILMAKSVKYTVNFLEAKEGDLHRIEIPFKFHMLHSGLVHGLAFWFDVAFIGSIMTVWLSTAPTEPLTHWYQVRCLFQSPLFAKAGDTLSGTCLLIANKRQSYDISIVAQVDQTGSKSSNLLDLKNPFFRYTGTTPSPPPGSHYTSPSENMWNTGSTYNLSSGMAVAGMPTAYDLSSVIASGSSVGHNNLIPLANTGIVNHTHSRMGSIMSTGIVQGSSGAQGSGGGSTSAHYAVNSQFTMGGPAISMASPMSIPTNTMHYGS

Substance: CARM1 (from UniProt Q86X55) MYC-CARM1 Y149F
- binding against the reference (CARM1): weaker
- binding against the reference (RUNX1; sites Y149): lost

Substance: CARM1 (from UniProt Q86X55) MYC-CARM1 Y334F
- binding against the reference (RUNX1; sites Y334): lost
